Measured values taken from doi:10.1101/2024.10.14.618152.

Target: Zt-KP4-1 (Zt-NIP1) (Zymoseptoria tritici)
Experiment: SEC

**Q.** Which stoichiometry N does the source give for Zt-KP4-1 (Zt-NIP1) (natural protein) here?
**A.** 2
